According to patent US20090123572:

T1: recombinant squamous cell carcinoma antigen 1 (SCCA-1), P29508
T1 chain: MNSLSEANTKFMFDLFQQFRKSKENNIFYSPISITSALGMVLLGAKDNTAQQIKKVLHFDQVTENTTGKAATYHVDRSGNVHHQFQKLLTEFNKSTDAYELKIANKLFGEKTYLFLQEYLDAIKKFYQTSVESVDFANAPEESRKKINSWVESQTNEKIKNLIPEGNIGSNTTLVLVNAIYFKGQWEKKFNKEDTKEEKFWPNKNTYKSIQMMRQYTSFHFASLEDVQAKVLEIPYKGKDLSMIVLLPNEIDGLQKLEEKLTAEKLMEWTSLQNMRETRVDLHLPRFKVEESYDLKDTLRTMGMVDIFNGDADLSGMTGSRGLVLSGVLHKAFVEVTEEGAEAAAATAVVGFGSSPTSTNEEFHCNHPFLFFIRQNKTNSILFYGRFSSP

T2: recombinant ICAD protein, O00273
T2 chain: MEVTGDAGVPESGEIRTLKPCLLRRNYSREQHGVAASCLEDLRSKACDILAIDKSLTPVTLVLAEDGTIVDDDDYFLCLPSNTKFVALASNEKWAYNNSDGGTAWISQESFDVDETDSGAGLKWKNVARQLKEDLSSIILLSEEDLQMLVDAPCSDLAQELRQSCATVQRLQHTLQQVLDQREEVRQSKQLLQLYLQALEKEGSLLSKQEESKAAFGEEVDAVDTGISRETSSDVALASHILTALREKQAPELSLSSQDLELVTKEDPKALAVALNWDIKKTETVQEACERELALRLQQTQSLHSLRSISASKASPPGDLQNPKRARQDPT


Assays:
[1] = molecular target: T1, recombinant squamous cell carcinoma …
[2] = molecular target: T2, recombinant ICAD protein, O00273

Protein | enzyme activity of recombinant caspase incubated with SCCA-1 (synthetic caspase substrates) [1] | also measured
recombinant caspase-10 (protein) VKTFLEALPQESWQNKHAGSNGNRATNGAPSLVSRGMQGASANTLNSETSTKRAAVYRMNRNHRGLCVIVNNHSFTSLKDRQGTHKDAEILSHVFQWLGFTVHIHNNVTKVEMEMVLQKQKCNPAHADGDCFVFCILTHGRFGAVYSSDEALIPIREIMSHFTALQCPRLAEKPKLFFIQACQGEEIQPSVSIEADALNPEQAPTSLQDSIPAEADFLLGLATVPGYVSFRHVEEGSWYIQSLCNHLKKLVPRMLKFLEKTMEIRGRKRTVWGAKQISATSLPTAISAQTPRPPMRRWSSVS | None of the caspase members (1 to 10) were affected with respect to enzyme activity when recombinant caspase was incubated with SCCA-1 | –
recombinant caspase-7 (protein) AKPDRSSFVPSLFSKKKKNVTMRSIKTTRDRVPTYQYNMNFEKLGKCIIINNKNFDKVTGMGVRNGTDKDAEALFKCFRSLGFDVIVYNDCSCAKMQDLLKKASEEDHTNAACFACILLSHGEENVIYGKDGVTPIKDLTAHFRGDRCKTLLEKPKLFFIQACRGTELDDGIQADSGPINDTDANPRYKIPVEADFLFAYSTVPGYYSWRSPGRGSWFVQALCSILEEHGKDLEIMQILTRVNDRVARHFESQSDDPHFHEKKQIPCVVSMLTKELYFSQ | None of the caspase members (1 to 10) were affected with respect to enzyme activity when recombinant caspase was incubated with SCCA-1 | –
recombinant caspase-2 (protein) GPVCLQVKPCTPEFYQTHFQLAYRLQSRPRGLALVLSNVHFTGEKELEFRSGGDVDHSTLVTLFKLLGYDVHVLCDQTAQEMQEKLQNFAQLPAHRVTDSCIVALLSHGVEGAIYGVDGKLLQLQEVFQLFDNANCPSLQNKPKMFFIQACRGDETDRGVDQQDGKNHAGSPGCEESDAGKEKLPKMRLPTRSDMICGYACLKGTAAMRNTKRGSWYIEALAQVFSERACDMHVADMLVKVNALIKDREGYAPGTEFHRCKEMSEYCSTLCRHLYLFPGHPPT | None of the caspase members (1 to 10) were affected with respect to enzyme activity when recombinant caspase was incubated with SCCA-1 | –
recombinant caspase-1 (protein) NPAMPTSSGSEGNVKLCSLEEAQRIWKQKSAEIYPIMDKSSRTRLALIICNEEFDSIPRRTGAEVDITGMTMLLQNLGYSVDVKKNLTASDMTTELEAFAHRPEHKTSDSTFLVFMSHGIREGICGKKHSEQVPDILQLNAIFNMLNTKNCPSLKDKPKVIIIQACRGDSPGVVWFKDSVGVSGNLSLPTTEEFEDDAIKKAHIEKDFIAFCSSTPDNVSWRHPTMGSVFIGRLIEHMQEYACSCDVEEIFRKVRFSFEQPDGRAQMPTTERVTLTRCFYLFPGH | None of the caspase members (1 to 10) were affected with respect to enzyme activity when recombinant caspase was incubated with SCCA-1 | –
recombinant caspase-9 (protein) GALESLRGNADLAYILSMEPCGHCLIINNVNFCRESGLRTRTGSNIDCEKLRRRFSSLHFMVEVKGDLTAKKMVLALLELAQQDHGALDCCVVVILSHGCQASHLQFPGAVYGTDGCPVSVEKIVNIFNGTSCPSLGGKPKLFFIQACGGEQKDHGFEVASTSPEDESPGSNPEPDATPFQEGLRTFDQLDAISSLPTPSDIFVSYSTFPGFVSWRDPKSGSWYVETLDDIFEQWAHSEDLQSLLLRVANAVSVKGIYKQMPGCFNFLRKKLFFKTS | None of the caspase members (1 to 10) were affected with respect to enzyme activity when recombinant caspase was incubated with SCCA-1 | –
recombinant caspase-3 (protein) SGISLDNSYKMDYPEMGLCIIINNKNFHKSTGMTSRSGTDVDAANLRETFRNLKYEVRNKNDLTREEIVELMRDVSKEDHSKRSSFVCVLLSHGEEGIIFGTNGPVDLKKITNFFRGDRCRSLTGKPKLFIIQACRGTELDCGIETDSGVDDDMACHKIPVEADFLYAYSTAPGYYSWRNSKDGSWFIQSLCAMLKQYADKLEFMHILTRVNRKVATEFESFSFDATFHAKKQIPCIVSMLTKELYFYH | None of the caspase members (1 to 10) were affected with respect to enzyme activity when recombinant caspase was incubated with SCCA-1 | caspase-3 activity on the synthetic substrate DEVD-MCA or the natural substrate ICAD [1]: SCCA-1 did not inhibit caspase-3 activity using the synthetic substrate DEVD-MCA or the natural substrate ICAD.
purified caspase-14 from human cornified cells (heterodimer of 17 KDa large subunit and 11 KDa small subunit) (protein) chain 1: SLEEEKYDMSGARLALILCVTKAREGSEEDLDALEHMFRQLRFESTMKRDPTAEQFQEELEKFQQAIDSREDPVSCAFVVLMAHGREGFLKGEDGEMVKLENLFEALNNKNCQALRAKPKVYIIQACRGEQRDPGETVGGD chain 2: KDSPQTIPTYTDALHVYSTVEGYIAYRHDQKGSCFIQTLVDVFTKRKGHILELLTEVTRRMAEAELVQEGKARKTNPEIQSTLRKRLYLQ | – | ICAD cleavage products (Western blot with FL331 antibody) [2]: Cleavage products were observed at 33 and 27 KDa.; decomposition of recombinant ICAD in the presence of kosmotropic salt (Western blot with anti-ICAD IgG) [2]: since the amount of intact ICAD protein decreases and two major decomposition products increase in the presence of kosmotropic salt, purified caspase-14 demonstrated limited decomposing action on ICAD; fragments formed from ICAD; sequence analysis of the cleavage sites [2]: caspase-14 formed fragments resembling 12 KDa and 35 KDa from ICAD. Sequence analysis indicated identical cleavage sites.; hydrolysis of recombinant ICAD in an ordinary caspase assay buffer (Western blot with anti-ICAD IgG) [2]: purified caspase-14 did not demonstrate any hydrolysis activity on ICAD
recombinant caspase-5 (protein) DQKITSVKPLLQIEAGPPESAESTNILKLCPREEFLRLCKKNHDEIYPIKKREDRRRLALIICNTKFDHLPARNGAHYDIVGMKRLLQGLGYTVVDEKNLTARDMESVLRAFAARPEHKSSDSTFLVLMSHGILEGICGTAHKKKKPDVLLYDTIFQIFNNRNCLSLKDKPKVIIVQACRGEKHGELWVRDSPASLALISSQSSENLEADSVCKIHEEKDFIAFCSSTPHNVSWRDRTRGSIFITELITCFQKYSCCCHLMEIFRKVQKSFEVPQAKAQMPTIERATLTRDFYLFPGN | None of the caspase members (1 to 10) were affected with respect to enzyme activity when recombinant caspase was incubated with SCCA-1 | –
recombinant caspase-8 (protein) SESQTLDKVYQMKSKPRGYCLIINNHNFAKAREKVPKLHSIRDRNGTHLDAGALTTTFEELHFEIKPHDDCTVEQIYEILKIYQLMDHSNMDCFICCILSHGDKGIIYGTDGQEAPIYELTSQFTGLKCPSLAGKPKVFFIQACQGDNYQKGIPVETDSEEQPYLEMDLSSPQTRYIPDEADFLLGMATVNNCVSYRNPAEGTWYIQSLCQSLRERCPRGDDILTILTEVNYEVSNKDDKKNMGKQMPQPTFTLRKKLVFPSD | None of the caspase members (1 to 10) were affected with respect to enzyme activity when recombinant caspase was incubated with SCCA-1 | –
recombinant caspase-4 (protein) QISPNKKAHPNMEAGPPESGESTDALKLCPHEEFLRLCKERAEEIYPIKERNNRTRLALIICNTEFDHLPPRNGADFDITGMKELLEGLDYSVDVEENLTARDMESALRAFATRPEHKSSDSTFLVLMSHGILEGICGTVHDEKKPDVLLYDTIFQIFNNRNCLSLKDKPKVIIVQACRGANRGELWVRDSPASLEVASSQSSENLEEDAVYKTHVEKDFIAFCSSTPHNVSWRDSTMGSIFITQLITCFQKYSWCCHLEEVFRKVQQSFETPRAKAQMPTIERLSMTRYFYLFPGN | None of the caspase members (1 to 10) were affected with respect to enzyme activity when recombinant caspase was incubated with SCCA-1 | –
recombinant caspase-6 (protein) AFYKREMFDPAEKYKMDHRRRGIALIFNHERFFWHLTLPERRGTCADRDNLTRRFSDLGFEVKCFNDLKAEELLLKIHEVSTVSHADADCFVCVFLSHGEGNHIYAYDAKIEIQTLTGLFKGDKCHSLVGKPKIFIIQACRGNQHDVPVIPLDVVDNQTEKLDTNITEVDAASVYTLPAGADFLMCYSVAEGYYSHRETVNGSWYIQDLCEMLGKYGSSLEFTELLTLVNRKVSQRRVDFCKDPSAIGKKQVPCFASMLTKKLHFFPKSN | None of the caspase members (1 to 10) were affected with respect to enzyme activity when recombinant caspase was incubated with SCCA-1 | –
